Source: paper PMC314469, “Protein Interaction Networks by Proteome Peptide Scanning” (PLoS Biology, 2004)

Experiments:
Experiment in all cases: SPOT array
[1] = target: Sho1 SH3 (SHO1_YEAST), P40073
[2] = target: T1, Myo5 SH3 (MYO5_YEAST), Q04439
T1 chain: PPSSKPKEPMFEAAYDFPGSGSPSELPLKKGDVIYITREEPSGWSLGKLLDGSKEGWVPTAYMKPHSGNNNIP

[3] = target: T2, Rvs167 SH3 (RV167_YEAST), P39743
T2 chain: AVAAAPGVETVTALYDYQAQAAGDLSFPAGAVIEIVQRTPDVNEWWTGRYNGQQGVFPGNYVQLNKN

[4] = target: T3, Yfr024 SH3 (LSB3_YEAST), P43603
T3 chain: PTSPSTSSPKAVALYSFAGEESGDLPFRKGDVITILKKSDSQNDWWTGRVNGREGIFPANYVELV

[5] = target: T4, Yhr016c SH3 (YSC84_YEAST), P32793
T4 chain: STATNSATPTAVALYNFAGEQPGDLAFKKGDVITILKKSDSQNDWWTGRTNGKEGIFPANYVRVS

[6] = target: T5, Boi2 SH3 (BOI2_YEAST), P39969
T5 chain: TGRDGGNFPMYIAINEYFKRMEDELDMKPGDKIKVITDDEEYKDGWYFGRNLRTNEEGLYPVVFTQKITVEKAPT

[7] = target: T6, Boi1 SH3 (BOI1_YEAST), P38041
T6 chain: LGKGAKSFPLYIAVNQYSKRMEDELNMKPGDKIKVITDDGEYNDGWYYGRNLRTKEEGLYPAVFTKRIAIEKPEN

Sho1 SH3 (SHO1_YEAST), P40073, sequence (P40073 295-366): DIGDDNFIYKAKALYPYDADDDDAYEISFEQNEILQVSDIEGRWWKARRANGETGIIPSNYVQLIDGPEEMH

Binder	normalised SPOT signal, Boehringer light units (BLU); mean over the file's lines of this peptide [1]	normalised SPOT signal, Boehringer light units (BLU); mean over the file's lines of this peptide [2]	normalised SPOT signal, Boehringer light units (BLU); mean over the file's lines of this peptide [3]	normalised SPOT signal, Boehringer light units (BLU); mean over the file's lines of this peptide [4]	normalised SPOT signal, Boehringer light units (BLU); mean over the file's lines of this peptide [5]	normalised SPOT signal, Boehringer light units (BLU); mean over the file's lines of this peptide [6]	normalised SPOT signal, Boehringer light units (BLU); mean over the file's lines of this peptide [7]
TKRQRGEPSEPQQD [YGR241C 267-280]	44.1	27.7	189	157	43.3	21.1	2030
TKKRKLGPKAPNPL [YOR004W 192-205]	25	694	156	321	12.6	37.3	495
TGKFRYMPFSPAGT [YPR135W 471-484]	301	556	430	607	148	103	463
TKFTKPKPKQPVLP [YLR439W 17-30]	57.7	445	23.4	0.2	2.8	6.1	295
TELLKTLPFYPTPS [YGR110W 91-104]	53.6	77.3	57.4	22.7	10.8	0	57.9
TINSRFYPPIPISE [YMR154C 67-80]	86.9	76.4	130	304	82.1	6.9	95.6
TELLRIIPEMPKDL [YLR032W 80-93]	97.2	228	22.9	132	19.4	15.7	79.9
TILERLTPLVPNNL [YKL017C 267-280]	39.5	249	198	202	32.2	-0	51.5
TGGGRIVPGVPPGA [YGR054W 516-529]	72.9	118	313	132	50.4	21.9	79.3
TGKPRKTPRPPFPF [YLR422W 149-162]	121	1190	3630	6310	1160	27.8	1420
TGYPRYFPQPPVQR [YLL058W 44-57]	44.3	5860	261	415	36.7	34.1	3760
TGESRKAPLIPLLK [YGR099W 447-460]	23.8	214	101	162	5.8	-0	8.4
TKAKKEKPKPPKPI [YMR044W 280-293]	56.3	158	32.6	95.1	21.2	11.1	546
TEIYKLEPREPQVD [YEL031W 1078-1091]	29	29.1	98	0	64.7	15.6	132
TEFSRPIPPTPSGF [YPL009C 63-76]	86.7	163	34400	13800	9520	0	40.4
TEVWRKVPMKPIFE [YCR032W 1849-1862]	59.1	243	523	4970	788	33.4	163
